According to patent US20240025996A1 (FRED HUTCHINSON CANCER CENTER, published 2024):

B1: Nb11 WT (VHH)
VHH: QVKLVQSGGGLVQAGGSLRLSCAASGSIFSSASMGWYRQAPGKPREQVASITRDGNTYYEDDVKGRFTISRDNARSTGYLQMNSLTPEDTGVYYCNVYQLGFYDKWGQGTQVIVSS
notes: also called free Nb11
B2: Nb14 WT (VHH)
VHH: QVKLVQSGGGLVQTGGSLRLSCAASEITFDMYSMGWYREAPGKARDAVASITNRGNTYYADSVKGRFTISRDNAKKTMYLQMNSLKPEDTAVYYCNVYRTGFSDYWGQGTQVTVSS
notes: also called free Nb14

Molecular target: T1, soluble ROR1 ectodomain (UniProt Q01973 30-406)
T1 construct: extracellular domain; also called ROR1-A647
Test: method not stated in the legend (FIGS. 1A-1C)

T1 sequence (Q01973 30-406 limits assumed): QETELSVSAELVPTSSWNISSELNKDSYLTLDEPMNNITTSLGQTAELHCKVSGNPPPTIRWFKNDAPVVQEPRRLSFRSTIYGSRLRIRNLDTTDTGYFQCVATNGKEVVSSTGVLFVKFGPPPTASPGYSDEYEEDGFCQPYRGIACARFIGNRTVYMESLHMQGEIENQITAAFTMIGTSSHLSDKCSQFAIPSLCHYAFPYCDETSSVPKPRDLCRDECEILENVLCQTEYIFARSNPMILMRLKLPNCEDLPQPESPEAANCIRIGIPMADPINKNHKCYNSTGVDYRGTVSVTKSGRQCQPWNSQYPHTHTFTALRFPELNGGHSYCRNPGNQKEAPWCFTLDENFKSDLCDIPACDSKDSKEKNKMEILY

| Binder | Kd [nM] |
| --- | --- |
| B1 | 2 |
| B2 | 2 |
